What was measured:
[1] = target: hetero-oligomers with three or more ADGroEL_SacSm in their composition; experiment: pull-down
[2] = target: artificial chaperone ADGroEL_SacSm (complete heptameric ring) (not stated | Sulfolobus acidocaldarius); experiment: pull-down

B1: denatured alpha-Lactalbumin (αLA) (natural protein)
chain: EQLTKCEVFRELKDLKGYGGVSLPEWVCTTFHTSGYDTQAIVQNNDSTEYGLFQINNKIWCKDDQNPHSSNICNISCDKFLDDDLTDDIMCVKKILDKVGINYWLAHKALCSEKLDQWLCEKL
- stoichiometry N (αLA per ADGroEL) [1]: 0.5
- stoichiometry N (αLA molecules per complete ring) [2]: 4

From paper doi:10.1101/2023.11.28.569006
